Source: US20250339569A1 (3B PHARMACEUTICALS, published 2025)
Starred links: 1 amine or outer side, 2 acyl side, 3 side chain; linkers in the order of their positions; H or OH if unused. Positions of bridges follow the written chain, without caps; N, C: chain ends. Non-standard residues stand in square brackets, D forms with d. Primed or numbered codes have the meaning given here. ξ: configuration not given here. *: point of attachment. Eem = S-benzyl-cysteine-sulfone, O=C([C@H](CS(=O)(=O)Cc1ccccc1)N[*:1])[*:2]; APAc″ = 2-(4-(amino)piperidin-1-yl)acetic acid, NC1CCN(CC(=O)*)CC1; DOTA = O=C(O)CN1CCN(CC(=O)O)CCN(CC(=O)*)CCN(CC(=O)O)CC1; Phe(3,4-Cl2) = N[C@@H](Cc1ccc(Cl)c(Cl)c1)C(=O)O; Phe(3-CF3) = N[C@@H](Cc1cccc(C(F)(F)F)c1)C(=O)O; Phe(4-CF3) = N[C@@H](Cc1ccc(C(F)(F)F)cc1)C(=O)O; Trp(7-aza) = N[C@@H](Cc1c[nH]c2ncccc12)C(=O)O; ξTrp(7-Me) = Cc1cccc2c(CC(N)C(=O)O)c[nH]c12; Bip = N[C@@H](Cc1ccc(-c2ccccc2)cc1)C(=O)O; ξTrp(1-Me) = Cn1cc(CC(N)C(=O)O)c2ccccc21; Dip = N[C@H](C(=O)O)C(c1ccccc1)c1ccccc1; Phe(4-I) = N[C@@H](Cc1ccc(I)cc1)C(=O)O; dmo = (R)-dimethylornithine (D form); mXylylene = c1cc(C[*:1])cc(C[*:2])c1; Orn(Me2) = CN(C)CCC[C@H](N)C(=O)O; tBuAla = CC(C)(C)C[C@H](N)C(=O)O; Cha = N[C@@H](CC1CCCCC1)C(=O)O; NMeD = CN[C@@H](CC(=O)O)C(=O)O; Pen = CC(C)(S)[C@H](N)C(=O)O; hSer = N[C@@H](CCO)C(=O)O; AGLU′ = not defined here; Orn = NCCC[C@H](N)C(=O)O; APAc = not defined here; Dap = NC[C@H](N)C(=O)O

B1: 3BP-3963 (peptide)
peptide: Ac-VYCE[dP]KWLEWS[Pen]-NH2
modifications: linker 3-12 via mXylylene; lactam 6-9
SMILES: CC(=O)N[C@H](C(=O)N[C@@H](Cc1ccc(O)cc1)C(=O)N[C@H]1CSCc2cccc(c2)CSC(C)(C)[C@@H](C(N)=O)NC(=O)[C@H](CO)NC(=O)[C@H](Cc2c[nH]c3ccccc23)NC(=O)[C@@H]2CCC(=O)NCCCC[C@H](NC(=O)[C@H]3CCCN3C(=O)[C@H](CCC(=O)O)NC1=O)C(=O)N[C@@H](Cc1c[nH]c3ccccc13)C(=O)N[C@@H](CC(C)C)C(=O)N2)C(C)C
B2: 3BP-4158 (peptide)
peptide: {DOTA-APAc″}-VYCE[dP]D[ξTrp(7-Me)]LTWSC-NH2
modifications: linker 3-12 via mXylylene; not fully specified
B3: 3BP-4099 (peptide)
peptide: {DOTA-APAc}-VYCE[dP]DWL[Orn(Me2)]WSC-NH2
modifications: linker 3-12 via mXylylene; reading uncertain
B4: 3BP-4133 (peptide)
peptide: {DOTA-APAc}-VYCE[dP]D[Phe(3,4-Cl2)]LTWSC-NH2
modifications: linker 3-12 via mXylylene; not fully specified; reading uncertain
B5: 3BP-4095 (peptide)
peptide: {DOTA-APAc}-V[Orn(Me2)]CE[dP]DWLTWSC-NH2
modifications: linker 3-12 via mXylylene; reading uncertain
B6: 3BP-4176 (peptide)
peptide: {DOTA-APAc″}-V[Dap]CE[dP]DWLTWDC-NH2
modifications: lactam 2-11; linker 3-12 via mXylylene
B7: 3BP-4177 (peptide)
peptide: {DOTA-APAc″}-V[Dap]CE[dP]DWLTWEC-NH2
modifications: lactam 2-11; linker 3-12 via mXylylene
B8: 3BP-3934 (peptide)
peptide: {DOTA}-YCE[dP]KWLEWSC-NH2
modifications: linker 2-11 via mXylylene; lactam 5-8
SMILES: CC(C)C[C@@H]1NC(=O)[C@H](Cc2c[nH]c3ccccc23)NC(=O)[C@@H]2CCCCNC(=O)CC[C@H](NC1=O)C(=O)N[C@@H](Cc1c[nH]c3ccccc13)C(=O)N[C@@H](CO)C(=O)N[C@H](C(N)=O)CSCc1cccc(c1)CSC[C@H](NC(=O)[C@H](Cc1ccc(O)cc1)NC(=O)CN1CCN(CC(=O)O)CCN(CC(=O)O)CCN(CC(=O)O)CC1)C(=O)N[C@@H](CCC(=O)O)C(=O)N1CCC[C@@H]1C(=O)N2
B9: 3BP-4139 (peptide)
peptide: {DOTA-APAc}-VYCE[dP]D[Phe(4-CF3)]LTWSC-NH2
modifications: linker 3-12 via mXylylene; not fully specified; reading uncertain
B10: 3BP-4134 (peptide)
peptide: {DOTA-APAc}-VYCE[dP]D[Phe(4-I)]LTWSC-NH2
modifications: linker 3-12 via mXylylene; not fully specified; reading uncertain
B11: 3BP-4097 (peptide)
peptide: {DOTA-APAc}-VYCE[dmo]DWLTWSC-NH2
modifications: linker 3-12 via mXylylene; reading uncertain
B12: 3BP-4131 (peptide)
peptide: {DOTA-APAc}-VYCE[dP]D[Bip]LTWSC-NH2
modifications: linker 3-12 via mXylylene; not fully specified; reading uncertain
B13: 3BP-4159 (peptide)
peptide: {DOTA-APAc″}-VYCE[dP]DWLT[Trp(7-aza)]SC-NH2
modifications: linker 3-12 via mXylylene
B14: 3BP-4005 (peptide)
peptide: Ac-VYCE[dP][Orn]WLDWSC-NH2
modifications: linker 3-12 via mXylylene; lactam 6-9
SMILES: CC(=O)N[C@H](C(=O)N[C@@H](Cc1ccc(O)cc1)C(=O)N[C@H]1CSCc2cccc(c2)CSC[C@@H](C(N)=O)NC(=O)[C@H](CO)NC(=O)[C@H](Cc2c[nH]c3ccccc23)NC(=O)[C@@H]2CC(=O)NCCC[C@H](NC(=O)[C@H]3CCCN3C(=O)[C@H](CCC(=O)O)NC1=O)C(=O)N[C@@H](Cc1c[nH]c3ccccc13)C(=O)N[C@@H](CC(C)C)C(=O)N2)C(C)C
B15: 3BP-4102 (peptide)
peptide: {DOTA-APAc}-VYCE[dP][hSer]WLTWSC-NH2
modifications: linker 3-12 via mXylylene; reading uncertain
B16: 3BP-4123 (peptide)
peptide: {DOTA-APAc}-VYCE[dP][Eem]WLTWSC-NH2
modifications: linker 3-12 via mXylylene; not fully specified; reading uncertain
B17: 3BP-4143 (peptide)
peptide: {DOTA-APAc″}-VYCE[dP]DW[Cha]TWSC-NH2
modifications: linker 3-12 via mXylylene
B18: 3BP-4107 (peptide)
peptide: {DOTA-APAc}-VYCE[dP][NMeD]WLTWSC-NH2
modifications: linker 3-12 via mXylylene; reading uncertain
B19: 3BP-4174 (peptide)
peptide: {DOTA-APAc″}-VDCE[dP]DWLTW[Dap]C-NH2
modifications: lactam 2-11; linker 3-12 via mXylylene
B20: 3BP-4175 (peptide)
peptide: {DOTA-APAc″}-VECE[dP]DWLTW[Dap]C-NH2
modifications: lactam 2-11; linker 3-12 via mXylylene
B21: 3BP-4257 (peptide)
peptide: {DOTA}-SDCE[dP]DWLTW[Dap]C-NH2
modifications: lactam 11-2; linker 3-12 via mXylylene
SMILES: CC(C)C[C@@H]1NC(=O)[C@H](Cc2c[nH]c3ccccc23)NC(=O)[C@H](CC(=O)O)NC(=O)[C@H]2CCCN2C(=O)[C@H](CCC(=O)O)NC(=O)[C@@H]2CSCc3cccc(c3)CSC[C@@H](C(N)=O)NC(=O)[C@H](CNC(=O)C[C@H](NC(=O)[C@H](CO)NC(=O)CN3CCN(CC(=O)O)CCN(CC(=O)O)CCN(CC(=O)O)CC3)C(=O)N2)NC(=O)[C@H](Cc2c[nH]c3ccccc23)NC(=O)[C@H]([C@@H](C)O)NC1=O
B22: 3BP-4100 (peptide)
peptide: {DOTA-APAc}-VYCE[dP]DWLTW[Orn(Me2)]C-NH2
modifications: linker 3-12 via mXylylene; reading uncertain
B23: 3BP-4144 (peptide)
peptide: {DOTA-APAc″}-VYCE[dP]D[ξTrp(1-Me)]LTWSC-NH2
modifications: linker 3-12 via mXylylene; not fully specified
B24: 3BP-4096 (peptide)
peptide: {DOTA-APAc}-VYC[Orn(Me2)][dP]DWLTWSC-NH2
modifications: linker 3-12 via mXylylene; reading uncertain
B25: 3BP-4113 (peptide)
peptide: {DOTA-APAc}-VYCE(AGLU′)[dP]DWLTWSC-NH2
modifications: linker 3-12 via mXylylene; reading uncertain
B26: 3BP-3906 (peptide)
peptide: {DOTA}-YCE[dP]DWLTWSC-NH2
modifications: linker 2-11 via mXylylene; also: ['indium complexed by DOTA']
B27: 3BP-4135 (peptide)
peptide: {DOTA-APAc}-VYCE[dP]D[Phe(3-CF3)]LTWSC-NH2
modifications: linker 3-12 via mXylylene; not fully specified; reading uncertain
B28: 3BP-4132 (peptide)
peptide: {DOTA-APAc}-VYCE[dP]D[Dip]LTWSC-NH2
modifications: linker 3-12 via mXylylene; not fully specified; reading uncertain
B29: 3BP-4142 (peptide)
peptide: {DOTA-APAc″}-VYCE[dP]DW[tBuAla]TWSC-NH2
modifications: linker 3-12 via mXylylene
B30: 3BP-4101 (peptide)
peptide: {DOTA-APAc}-VYC[hSer][dP]DWLTWSC-NH2
modifications: linker 3-12 via mXylylene; reading uncertain

target: human carbonic anhydrase 9 (CAIX) (human, UniProt Q16790 38-459); assay: FACS competition on HT-29 cells, competitor tracer 3BP-2776; category A = pIC50 >8.0
Protocol: CAIX-expressing human HT-29 colorectal cancer cells (DSMZ, RRID: CVCL_0320) were cultured in McCoys's 5A modified medium (Biochrom, #F1015) including 10% fetal calf serum (FCS), 2 mM L-glutamine, 100 U/ml penicillin and 100 μg/mL streptomycin. Cells were detached with Accutase (Biolegend, #423201) and washed in FACS buffer (PBS including 1% FCS). Cells were diluted in FACS buffer to a final concentration of 500.000 cells per ml. 200 μL of the cell suspension were transferred to a u-shaped non-binding 96-well plate (Greiner) and cells were washed in ice-cold FACS buffer.
When biotinylated compounds were used an additional incubation step with 1 μg/mL APC-Streptavidin (Miltenyi; #130-106-791) in 50 μL FACS buffer for 30 minutes on ice was performed.
Cells were washed twice with ice-cold FACS buffer and analyzed in an Attune NxT flow cytometer (Thermo Fisher). Median fluorescence intensities (MFI) of the APC/Cy5-channel were calculated by Attune NxT software.

pIC50, > 8 pic50:
B1
B2
B3
B4
B5
B6
B7
B8
B9
B10
B11
B12
B13
B14
B15
B16
B17
B18
B19
B20
B21
B22
B23
B24
B25
B26
B27
B28
B29
B30
